Test results reported in patent US20240294593A1 (Genentech, published 2024).

How the values were obtained:
[1] = molecular target: T1, human PD-1-His (human, UniProt Q15116 25-167, limits assumed); experiment: Octet (BLI), bivalent IgG1 mAb
T1 construct: Antigen of the Octet assays; not shown: His tag

[2] = molecular target: T1, human PD-1-His; experiment: Octet (BLI), bivalent IgG1 mAb; legend calls the constant apparent (KDapp)
[3] = molecular target: T1, human PD-1-His; experiment: Octet (BLI), AHC biosensors capture the bivalent mAb, dipped into multiple concentrations of PD-1; KDapp per legend
Source text: (§1) In particular, anti-human IgG-Fc (AHC) biosensors were used to capture the test articles and dipped into multiple concentrations of PD-1.

[4] = molecular target: T1, human PD-1-His; experiment: Octet (BLI), AHC capture of the bivalent mAb, PD-1 in solution
Source text: as §1

[5] = molecular target: T1, human PD-1-His; experiment: Octet

T1 sequence (Q15116 25-167 limits assumed): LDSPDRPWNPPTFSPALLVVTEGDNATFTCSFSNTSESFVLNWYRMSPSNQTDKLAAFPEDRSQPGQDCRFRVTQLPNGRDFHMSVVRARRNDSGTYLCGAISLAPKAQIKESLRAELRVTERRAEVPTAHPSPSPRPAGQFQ

| Binder | koff [1] | kon [1] | Kd [2] | Kd [3] | koff [4] | kon [4] | other results |
| --- | --- | --- | --- | --- | --- | --- | --- |
| H1.188_L1.140 (XENP32434) (antibody, V domains shown, VH-F34L/S55G/R109T/W112F, VL-N31H/K36Y/S99T (Xencor #); Kabat positions VH-32/52A/97/100, VL-27D/30/93; also called mAb C[PD-1]_H1.188_L1.140) VH: EVQLVESGGGLVQPGGSLRLSCAASGFTFSSLGMHWVRQAPGKGLEWVSYISGGSSIIYYADSVKGRFTISRDNAKNSLYLQMNSLRAEDTAVYYCARGGTLVFSPDYWGQGTLVTVSS VL: DIVMTQSPDSLAVSLGERATINCKSSQSLLHSGNQYNYLTWYQQKPGQPPKLLIYWASTRESGVPDRFTGSGSGTDFTLTISSLQAEDVAVYYCQNDYTYPFTFGSGTKLEIKR | 0.000177 s⁻¹ | 181000 M⁻¹ s⁻¹ | 0.981 nM |  |  |  |  |
| H1.213_L1.1 (XENP32829) (antibody, human IgG1, kappa, V domains shown, VH substitution L110S/V111I/W112F (Xencor #); L98S/V99I/W100F (Kabat); also called mAb C[PD1]_H1.213_L1.1_IgG1_PVA_/S267K) VH: EVQLVESGGGLVQPGGSLRLSCAASGFTFSSFGMHWVRQAPGKGLEWVSYISSGSSIIYYADSVKGRFTISRDNAKNSLYLQMNSLRAEDTAVYYCARGGRSIFSPDYWGQGTLVTVSS VL: DIVMTQSPDSLAVSLGERATINCKSSQSLLHSGNQKNYLTWYQQKPGQPPKLLIYWASTRESGVPDRFTGSGSGTDFTLTISSLQAEDVAVYYCQNDYSYPFTFGSGTKLEIKR |  |  |  | 27.6 nM | 0.0029 s⁻¹ | 105000 M⁻¹ s⁻¹ |  |
| H1.214_L1.1 (XENP32830) (antibody, human IgG1, kappa, V domains shown, VH substitution R109L/V111I/W112L (Xencor #) but R97L/V99I/W100F in the Kabat column: the two columns disagree; also called mAb C[PD1]_H1.214_L1.1_IgG1_PVA_/S267K) VH: EVQLVESGGGLVQPGGSLRLSCAASGFTFSSFGMHWVRQAPGKGLEWVSYISSGSSIIYYADSVKGRFTISRDNAKNSLYLQMNSLRAEDTAVYYCARGGLLILSPDYWGQGTLVTVSS VL: DIVMTQSPDSLAVSLGERATINCKSSQSLLHSGNQKNYLTWYQQKPGQPPKLLIYWASTRESGVPDRFTGSGSGTDFTLTISSLQAEDVAVYYCQNDYSYPFTFGSGTKLEIKR |  |  |  | 36.7 nM | 0.0061 s⁻¹ | 166000 M⁻¹ s⁻¹ |  |
| H1.215_L1.1 (XENP32831) (antibody, human IgG1, kappa, V domains shown, VH substitution G108A/W112F (Xencor #); G96A/W100F (Kabat); also called mAb C[PD1]_H1.215_L1.1_IgG1_PVA_/S267K) VH: EVQLVESGGGLVQPGGSLRLSCAASGFTFSSFGMHWVRQAPGKGLEWVSYISSGSSIIYYADSVKGRFTISRDNAKNSLYLQMNSLRAEDTAVYYCARGARLVFSPDYWGQGTLVTVSS VL: DIVMTQSPDSLAVSLGERATINCKSSQSLLHSGNQKNYLTWYQQKPGQPPKLLIYWASTRESGVPDRFTGSGSGTDFTLTISSLQAEDVAVYYCQNDYSYPFTFGSGTKLEIKR |  |  |  | 44.9 nM | 0.00482 s⁻¹ | 107000 M⁻¹ s⁻¹ |  |
| H1.216_L1.1 (XENP32832) (antibody, human IgG1, kappa, V domains shown, VH substitution R109S/L110V/V111L/W112F (Xencor #); R97S/L98V/V99L/W100F (Kabat); also called mAb C[PD1]_H1.216_L1.1_IgG1_PVA_/S267K) VH: EVQLVESGGGLVQPGGSLRLSCAASGFTFSSFGMHWVRQAPGKGLEWVSYISSGSSIIYYADSVKGRFTISRDNAKNSLYLQMNSLRAEDTAVYYCARGGSVLFSPDYWGQGTLVTVSS VL: DIVMTQSPDSLAVSLGERATINCKSSQSLLHSGNQKNYLTWYQQKPGQPPKLLIYWASTRESGVPDRFTGSGSGTDFTLTISSLQAEDVAVYYCQNDYSYPFTFGSGTKLEIKR |  |  |  | 11.4 nM | 0.00218 s⁻¹ | 193000 M⁻¹ s⁻¹ |  |
| H1_L1.134 (antibody, V domains shown, also called VL-Y100K; Kabat 94) VH: EVQLVESGGGLVQPGGSLRLSCAASGFTFSSFGMHWVRQAPGKGLEWVSYISSGSSIIYYADSVKGRFTISRDNAKNSLYLQMNSLRAEDTAVYYCARGGRLVWSPDYWGQGTLVTVSS VL: DIVMTQSPDSLAVSLGERATINCKSSQSLLNSGNQKNYLTWYQQKPGQPPKLLIYWASTRESGVPDRFTGSGSGTDFTLTISSLQAEDVAVYYCQNDYSKPFTFGSGTKLEIKR |  |  |  |  |  |  | Kd [5]: 91.3 nM; koff [5]: 0.0153 s⁻¹; kon [5]: 168000 M⁻¹ s⁻¹ |
| mAb C[PD1]_H1.177_L1.140 (bivalent IgG1) (antibody, V domains shown, Bivalent IgG1 format with E233P/L234V/L235A/G236_/S267K; copies: 2 + 2) VH: EVQLVESGGGLVQPGGSLRLSCAASGFTFSSLGMHWVRQAPGKGLEWVSYISGGSSIIYYADSVKGRFTISRDNAKNSLYLQMNSLRAEDTAVYYCARGGRLVFSPDYWGQGTLVTVSS VL: DIVMTQSPDSLAVSLGERATINCKSSQSLLHSGNQYNYLTWYQQKPGQPPKLLIYWASTRESGVPDRFTGSGSGTDFTLTISSLQAEDVAVYYCQNDYTYPFTFGSGTKLEIKR | 0.00022 s⁻¹ | 138000 M⁻¹ s⁻¹ | 1.6 nM |  |  |  |  |
| mAb C[PD1]_H1.180_L1.140 (bivalent IgG1) (antibody, V domains shown, Bivalent IgG1 format with E233P/L234V/L235A/G236_/S267K; copies: 2 + 2) VH: EVQLVESGGGLVQPGGSLRLSCAASGFTFSSLGMHWVRQAPGKGLEWVSYISGGSSIIYYADSVKGRFTISRDNAKNSLYLQMNSLRAEDTAVYYCARGGELVFSPDYWGQGTLVTVSS VL: DIVMTQSPDSLAVSLGERATINCKSSQSLLHSGNQYNYLTWYQQKPGQPPKLLIYWASTRESGVPDRFTGSGSGTDFTLTISSLQAEDVAVYYCQNDYTYPFTFGSGTKLEIKR | 0.000154 s⁻¹ | 256000 M⁻¹ s⁻¹ | 0.601 nM |  |  |  |  |
| mAb C[PD1]_H1.176_L1.140 (bivalent IgG1) (antibody, V domains shown, Bivalent IgG1 format with E233P/L234V/L235A/G236_/S267K) VH: EVQLVESGGGLVQPGGSLRLSCAASGFTFSSLGMHWVRQAPGKGLEWVSYISSGSSIIYYADSVKGRFTISRDNAKNSLYLQMNSLRAEDTAVYYCARGGRLVFSPDYWGQGTLVTVSS VL: DIVMTQSPDSLAVSLGERATINCKSSQSLLHSGNQYNYLTWYQQKPGQPPKLLIYWASTRESGVPDRFTGSGSGTDFTLTISSLQAEDVAVYYCQNDYTYPFTFGSGTKLEIK | 0.000278 s⁻¹ | 131000 M⁻¹ s⁻¹ | 2.13 nM |  |  |  |  |
